From publication PMC11335197

B1: AT1R wildtype C-terminally fused to YPet [not stated] / AT1R wildtype coupled to mTurquoise2 [not stated] (parent)
chain 1: MILNSSTEDGIKRIQDDCPKAGRHNYIFVMIPTLYSIIFVVGIFGNSLVVIVIYFYMKLKTVASVFLLNLALADLCFLLTLPLWAVYTAMEYRWPFGNYLCKIASASVSFNLYASVFLLTCLSIDRYLAIVHPMKSRLRRTMLVAKVTCIIIWLLAGLASLPAIIHRNVFFIENTNITVCAFHYESQNSTLPIGLGLTKNILGFLFPFLIILTSYTLIWKALKKAYEIQKNKPRNDDIFKIIMAIVLFFFFSWIPHQIFTFLDVLIQLGIIRDCRIADIVDTAMPITICIAYFNNCLNPLFYGFLGKKFKRYFLQLLKYIPPKAKSHSNLSTKMSTLSYRPSDNVSSSTKKPAPCFEVE
chain 2: B1 chain 1

Experiments:
[1] = variants of: B1; assay: FLIM (FRET) in living HEK293 cells; details: with AT1R wildtype coupled to mTurquoise2, 2-exponential fitting, acceptor AT1R-YPet, read off a plot
[2] = variants of: B1; assay: intensity-based FRET microscopy in living HEK293 cells; details: with AT1R wildtype coupled to mTurquoise2; donor AT1R-mTurquoise2 (wildtype), acceptor AT1R-YPet; read off a plot

chain 1 S189A I193A L197A I201A L202A L205A F206A
donor fluorescence lifetime [1]: 3.5 ns | response [2]: 35%

chain 1 Y54A F55A F96A Y99A L100A
donor fluorescence lifetime [1]: 3 ns | response [2]: 67%
